Reference: CN113185608A
Changes are numbered by the printed parent chain.

B1: 1H17+3λ8 (antibody, V domains shown)
VH: EVQLLESGGGLVQPGGSLRLSCAASGFTFSTYWMNWVRQAPGKGLEWVANRDGSQKYYVDSVEGRFTISRDNAKSSLYLQMNSLRADDTAVYYCMSGYDSGHWGQGSTVTVSS
VL: ANFMLTQEPSLTVSPGGTVTLTCGSSTGAVTSGLYAYWFQQKPGQVPRTLIYNISNKQSWTPARFSGSLLGGKAALTLSGPEDEADYYCLLSYSRTRVFGGGTKLTVLG
B2: 1H18+3λ10 (antibody, V domains shown)
VH: EVQLVQSGGGLVQPGGSLRLSCAASGFTFSTYWMNWVRLSQTPGKGLEWVANINRDGSQKYYVDSVEGRFTISRLSDNAKSSLYLQMNSLRADDTAVYYCMSGYDSGHWGQGSTVTVSS
VL: SQTVVTQEPSLTVSPGGTVTLTCGSSTGAVTSGLYAQQKPGQVPRTLIYNISNKQSWTPARFSGSLLGGKAALTLSGAQPEDEADYYCLLSYSRTRVFGGGTKLTVLG
B3: 1H3+3λ1 (antibody, V domains shown)
VH: VHSQVQLVESGGGVVQPGRSLRLSCAASGFTFSSYAMHWVRQAPGKGLEWVAVISYDGNKYYADSVKGRFTISRDNSKNTLYLQMNSLRDEDTAVYYCARAPDCSGGSCSTEYFQHWGQGTLVTVSS
VL: SWAQSVLTQEPSLTVSPGGTVTLTCGSSTGAVTSGLYAYWFQQKPGQVPRTLIYNISNKQSWTPARFSGSLLGGKAALTLSGAQPEDEADYYCLLSYSRTRVFGTKLTVLGQPKAAPSVTLFP
B4: 1H10+3λ5 (antibody, V domains shown)
VH: EVQLVQSGGGLVQPGGSLRLSCAASVEAFSTYWMNWVRQAPGKGLEWVANINRDGSQKYYVDSVEGRFTISRDNAKSSLYLQMNSLRADDTAVYYCMSGYDSGHWGQGSLVTVSS
VL: SQAVVTQEPSLTVSPGGTVTLTCGSSTGAVTSGLYAYWFQQKPGQVPRTLSTGAVIYNISNKQSWTPARFSGSLLGGKAALTLSGAQPEDEADYYCLLSYSRTRVFGGGTKLTVLG
B5: 1H16+3λ7 (antibody, V domains shown)
VH: B4 VH with Q6E, V26G, E27F, A28T
VL: SQAVVTQEPSLTVSPGGTVTLTCGSSTGAVTSGLYAYWTVTFQQKPGQVPRTLIYNISNKQSWTPARFSGSLLGGKAALTLSGAQPEDEADYYCLLSYSRTRVFGGGTKLTVLG

What follows are binders tested against 狂犬病毒糖蛋白(Glycoprotein，GP) (Rabies virus (RABV)) (assay: ELISA of HEK293T transfection supernatant).

Row | Binder | OD (ELISA) [OD]
1 | B1 | > 1.1
2 | B2 | > 1.1
3 | B3 | > 1.1
4 | B4 | > 1.1
5 | B5 | > 1.1
